Read-outs that look alike come from different tables or passages of the source.
T1: human OX40 on cells (human, UniProt P43489 29-277)
T1 construct: whole, on cells; Stably transfected CHO cells (flow cytometry) and bought Jurkat reporter cells (OX40 bioassay); also called Flp-In-CHO::huOX40; human OX40-expressing CHO cells
T1 sequence (looked up): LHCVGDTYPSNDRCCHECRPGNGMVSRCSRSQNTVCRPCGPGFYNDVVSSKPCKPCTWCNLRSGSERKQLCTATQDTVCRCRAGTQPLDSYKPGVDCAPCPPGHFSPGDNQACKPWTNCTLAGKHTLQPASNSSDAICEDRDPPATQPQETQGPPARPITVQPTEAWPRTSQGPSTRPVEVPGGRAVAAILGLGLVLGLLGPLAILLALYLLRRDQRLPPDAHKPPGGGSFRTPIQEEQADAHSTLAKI

B1: bispecific multimeric protein SEQ ID NO: 54 (designed binder)
chain: QVQLVQSGAEVKKPGASVKVSCKASGYTFTDYEMHWVRQAPGQGLEWMGALDPKTGDTAYSQKFKGRVTLTADKSTSTAYMELSSLTSEDTAVYYCTRFYSYTYWGQGTLVTLVSSGGGGSGGGGSGGGGSGGGGSDVVMTQSPLSLPVTPGEPASISCRSSQSLVHSNRNTYLHWYLQKPGQSPQLLIYKVSNRFSGVPDRFSGSGSGTDFTLKISRVEAEDVGVYYCSQNTHVPPTFGQGTKLEIKGGGGSGGGGSGGGGSGVRLWATRQAMLGQVHEVPEGWLIFVAEQEELYVRVQNGFRKVQLEARTPLGGGGSGGGGSGGGGSQDSTSDLIPAPPLSKVPLQQNFQDNQFHGKWYVVGQAGNIRLREDKDPIKMMATIYELKEDKSYDVTMVKFDDKKCMYDIWTFVPGSQPGEFTLGKIKSFPGHTSSLVRVVSTNYNQHAMVFFKFVFQNREEFYITLYGRTKELTSELKENFIRFSKSLGLPENHIVFPVPIDQCIDGGGSGGAPEQKLISEEDLGSHHHHHHHHHH
B2: multimeric protein SEQ ID NO: 40 (designed binder)
chain: QDSTSDLIPAPPLSKVPLQQNFQDNQFHGKWYVVGQAGNIRLREDKDPIKMMATIYELKEDKSYDVTMVKFDDKKCMYDIWTFVPGSQPGEFTLGKIKSFPGHTSSLVRVVSTNYNQHAMVFFKFVFQNREEFYITLYGRTKELTSELKENFIRFSKSLGLPENHIVFPVPIDQCIDGGGGGSGGGGSGGGGSGGGGSGGGGSGVRLWATRQAMLGQVHEVPEGWLIFVAEQEELYVRVQNGFRKVQLEARTPLGGSGGAPEQKLISEEDLGSHHHHHHHHHH
B3: 4-1BB-specific lipocalin mutein SEQ ID NO: 64 (designed binder)
chain: QDSTSDLIPAPPLSKVPLQQNFQDNQFHGKWYVVGQAGNIRLREDKDPIKMMATIYELKEDKSYDVTMVKFDDKKCMYDIWTFVPGSQPGEFTLGKIKSFPGHTSSLVRVVSTNYNQHAMVFFKFVFQNREEFYITLYGRTKELTSELKENFIRFSKSLGLPENHIVFPVPIDQCIDG
notes: Monomeric hNGAL mutein; also called 4-1BB-targeting lipocalin mutein as included in the multimeric proteins
B4: bispecific hexavalent trimeric protein SEQ ID NO: 164 (designed binder)
chain: QDSTSDLIPAPPLSKVPLQQNFQDNQFHGKWYVVGQAGNIRLREDKDPIKMMATIYELKEDKSYDVTMVKFDDKKCMYDIWTFVPGSQPGEFTLGKIKSFPGHTSSLVRVVSTNYNQHAMVFFKFVFQNREEFYITLYGRTKELTSELKENFIRFSKSLGLPENHIVFPVPIDQCIDGGGGGSGGGGSGGGGSGVRLWATRQAMLGQVHEVPEGWLIFVAEQEELYVRVQNGFRKVQLEARTPLGGGGSGGGGSGGGGSQDSTSDLIPAPPLSKVPLQQNFQDSQFQGKWYVVGFAGNYRLREDKDPGKMQATIYELREDKAYQVTGVLFPHKKCHDDIVIFVPGSQPGEFILGWIKSDPGITSDLVRVVSTDYNQHAMVFFKWVFQNREWFYITLYGRTKALTSELKENFIRFSKSLGLPEDHIVFPVPIDQCIDGGGSGGAPEQKLISEEDLGSHHHHHHHHHH

Experiments:
[1] = target: T2, human GPC3 on HepG2 cells (human, UniProt P51654 25-554); experiment: flow cytometry, HepG2 cells
T2 construct: whole, on cells; Endogenous GPC3 of the tumor cell line; also called GPC3-positive tumor cell line HepG2; human GPC3-expressing HepG2 cells
Protocol: (§1) GPC3-positive tumor cell line HepG2 was cultured in Dulbecco's Modified Eagle's Medium ([…], Pan Biotech) supplemented with 10% Fetal Calf Serum (Sigma-Aldrich) and in cell culture flasks according to manufacturer's instruction (37° C., 5% CO₂ atmosphere).
(§2) 5×10⁴ cells per well were incubated for 1 h in ice-cold PBS containing 5% fetal calf serum (PBS-FCS). A dilution series of the tested multimeric proteins (SEQ ID NOs: 38-44 and 46-55), the 4-1BB-targeting lipocalin mutein as included in the multimeric proteins (SEQ ID NO: 64) or the GPC3-targeting lipocalin SEQ ID NO: 90 were added to the cells and incubated for 1 h on ice. Cells were washed twice with PBS and then incubated with a rabbit anti-NGAL or a goat anti-human IgG labeled with fluorescent dye Alexa 488 for 30 min on ice. Human IgG4 isotype (SEQ ID NOs: 29 and 30) and lipocalin mutein SEQ ID NO: 8 were tested as a negative control. Cells were subsequently washed and analyzed using iQue Flow cytometer (Intellicyte Screener). Mean geometric fluorescent signals were plotted and fitted with Graphpad software using nonlinear regression (shared bottom, four parameters, variable slope).

human 4-1BB on cells [2] = target: T3, human 4-1BB on cells (human, UniProt Q07011 24-255); experiment: cell-based or functional assay
[3] = target: T4, huGPC3-His (human GPC3 with C-terminal polyhistidine tag, R&D Systems) (human, UniProt P51654 25-559, limits assumed); experiment: ELISA, huGPC3-His coated, detection anti-NGAL-HRP
T4 construct: Bought; not shown: C-terminal polyhistidine tag
Protocol: (§3) Recombinant hu4-1BB-His (human 4-1BB with a C-terminal polyhistidine tag, R&D Systems) at the concentration of 1 μg/mL in PBS was coated overnight on microtiter plates at 4° C. After washing with PBS-0.05% T (PBS supplemented with 0.05% (v/v) Tween 20), the plates were blocked with 2% BSA (w/v) in PBS-0.1% T (PBS supplemented with 0.1% (v/v) Tween 20) for 1 h at room temperature. After washing with 100 μL PBS-0.05% T five times, exemplary multimeric proteins (SEQ ID NOs: 38-44 and 46-53) or 4-1BB-specific lipocalin mutein as included in the multimeric protein (SEQ ID NO: 64) at different concentrations, ranging from 100 to 0.002 nM, were added to the wells and incubated for 1 h at room temperature, followed by another wash step. Bound molecules under study were detected by incubation with 1:1000 diluted anti-NGAL-HRP in PBS-0.1% T-2% BSA. After an additional wash step, fluorogenic HRP substrate (QuantaBlu, Thermo) was added to each well and the fluorescence intensity was detected using a fluorescence microplate reader.
The same ELISA setup was also employed to determine the binding potency of exemplary bispecific multimeric proteins (SEQ ID NO: 54 and SEQ ID NO: 55) to GPC3, where huGPC3-His (human GPC3 with C-terminal polyhistidine tag, R&D Systems) was instead coated on a microtiter plate. The testing agents were similarly titrated and bound agents detected.

[4] = target: T4, huGPC3-His (human GPC3 with C-terminal …); experiment: dual-binding ELISA, huGPC3-His coated, detection with biotinylated hu4-1BB-His and Extravidin-HRP
Protocol: Recombinant huGPC3-His (human GPC3 with C-terminal polyhistidine tag, R&D Systems) at the concentration of 1 μg/mL in PBS was coated overnight on microtiter plates at 4° C. After washing with PBS-0.05% T (PBS supplemented with 0.05% (v/v) Tween 20), the plates were blocked with 2% BSA (w/v) in PBS-0.1% T (PBS supplemented with 0.1% (v/v) Tween 20) for 1 h at room temperature. After washing with 100 μL PBS-0.05% T five times, exemplary multimeric proteins (SEQ ID NOs: 54 and 55) at different concentrations, ranging from 100 to 0.002 nM, were added to the wells and incubated for 1 h at room temperature, followed by another wash step. Bound molecules under study were detected by incubation with 1 μg/mL recombinant hu4-1BB-His (biotinylated human 4-1BB with C-terminal polyhistidine tag, Sino Biological) in PBS-0.1% T-2% BSA for 1 h. This step was followed by a further wash step and incubation with 1:5000 diluted Extravidin-HRP in PBS-0.1% T-2% BSA. After an additional wash step, fluorogenic HRP substrate (QuantaBlu, Thermo) was added to each well and the fluorescence intensity was detected using a fluorescence microplate reader.

hu4-1BB-Fc (R&D Systems) = target: T5, hu4-1BB-Fc (R&D Systems) (human, UniProt Q07011 24-186); experiment: SPR (Biacore 8K), hu4-1BB-Fc captured by anti-human IgG Fc; apparent value, 1:1 fit
T5 construct: Bought; also called human 4-1BB; not shown: human IgG Fc of the bought fusion
Protocol: The anti-human IgG Fc antibody (GE Healthcare) was immobilized on a CM5 sensor chip using standard amine chemistry: the carboxyl groups on the chip were activated using 1-ethyl-3-(3-dimethylaminopropyl)-carbodiimide (EDC) and N-hydroxysuccinimide (NHS). Subsequently, anti-human IgG Fc antibody solution (GE Healthcare) at a concentration of 25 μg/mL in 10 mM sodium acetate (pH 5.0) was applied at a flow rate of 5 μL/min until an immobilization level of 4000-10000 resonance units (RU) was achieved. Residual non-reacted NHS-esters were blocked by passing a solution of 1 M ethanolamine across the surface. The reference channel was treated in an analogous manner. Subsequently, hu4-1BB-Fc (R&D Systems) at 0.3 μg/mL was captured by the anti-human IgG-Fc antibody at the chip surface for 180 s at a flow rate of 10 μL/min.
The binding assay was carried out with a contact time of 180 s, a dissociation time of 1200 s or 3000 s and a flow rate of 30 μL/min. All measurements were performed at 25° C. Lipocalin mutein SEQ ID NO: 64 as included in the multimeric proteins was also tested as […]. […] Prior to the protein measurements, three startup cycles were performed for conditioning purposes. Data were evaluated with Biacore Evaluation software. Double referencing was used and the 1:1 binding model was used to fit the raw data.

human 4-1BB on cells [5] = target: T3, human 4-1BB on cells; experiment: flow cytometry, Flp-In-CHO::hu4-1BB cells
Protocol: (§4) CHO cells were stably transfected with human 4-1BB, cynomolgus 4-1BB, or a mock control using the Flp-In system (Life Technologies) according to the manufacturer's instructions. Transfected CHO cells were maintained in Ham's F12 medium (Life Technologies) supplemented with 10% Fetal Calf Serum (Biochrom) and 500 μg/ml Hygromycin B (Roth). Cells were cultured in cell culture flasks according to manufacturer's instruction (37° C., 5% CO₂ atmosphere).
as §2

[6] = target: T6, cynomolgus 4-1BB on CHO cells (cynomolgus, UniProt A9YYE7 24-254); experiment: flow cytometry, Flp-In-CHO::cyno4-1BB cells
T6 construct: also called Flp-In-CHO::cyno4-1BB; cynomolgus 4-1BB-expressing CHO cells
Protocol: as §4, §2

[7] = target: T6, cynomolgus 4-1BB on CHO cells; experiment: flow cytometry on Flp-In-CHO::cyCD137 (cynomolgus 4-1BB) cells, anti-NGAL detection, GeoMean BL1-H [Cont'd) B]
Protocol: as §4, §2

[8] = target: T7, recombinant hu4-1BB-His (human 4-1BB with a C-terminal polyhistidine tag, R&D Systems) (human, UniProt Q07011 24-186); experiment: ELISA, hu4-1BB-His coated, detection anti-NGAL-HRP
T7 construct: Bought; not shown: C-terminal polyhistidine tag
Protocol: as §3
The results of exemplary experiments are depicted in FIG. 2, together with the fit curves resulting from a 1:1 binding sigmoidal fit, where the EC₅₀ value and the maximum signal were free parameters, and the slope was fixed to one. The observed EC₅₀ values toward the hu4-1BB of all tested multimeric proteins were in the sub nanomolar range.

human 4-1BB on cells [9] = target: T3, human 4-1BB on cells; experiment: flow cytometry on Flp-In-CHO::huCD137 (human 4-1BB) cells, anti-NGAL detection, GeoMean BL1-H
Protocol: as §4, §2

[10] = target: T2, human GPC3 on HepG2 cells; experiment: flow cytometry on HepG2 cells (human GPC3), anti-NGAL detection, GeoMean BL1-H [Cont'd) C]
Protocol: as §1, §2

human OX40 on cells = target: T1, human OX40 on cells; experiment: flow cytometry, Flp-In-CHO::huOX40 cells
Protocol: as §2
(§5) Target-specific binding of hexavalent trimeric proteins to human 4-1BB-, OX40- or PD-L1-expressing cells was assessed by flow cytometry as described in Example 5, using CHO cells stably transfected with human 4-1BB, human OX40 or human PD-L1 (Flp-In system; Life Technologies).

human 4-1BB on cells [11] = target: T3, human 4-1BB on cells; experiment: flow cytometry, Flp-In-CHO::hu4-1BB cells; remark: listed apart in the source
Protocol: as §2, §5

T3 sequence (Q07011 24-255): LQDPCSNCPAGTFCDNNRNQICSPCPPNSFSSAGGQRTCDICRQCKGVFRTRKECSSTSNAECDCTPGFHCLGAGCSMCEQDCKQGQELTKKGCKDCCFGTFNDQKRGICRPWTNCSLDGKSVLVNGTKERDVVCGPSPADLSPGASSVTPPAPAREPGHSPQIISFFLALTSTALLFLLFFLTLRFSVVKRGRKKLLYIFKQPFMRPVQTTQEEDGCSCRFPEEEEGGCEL
T6 sequence (A9YYE7 entry or part of it limits assumed): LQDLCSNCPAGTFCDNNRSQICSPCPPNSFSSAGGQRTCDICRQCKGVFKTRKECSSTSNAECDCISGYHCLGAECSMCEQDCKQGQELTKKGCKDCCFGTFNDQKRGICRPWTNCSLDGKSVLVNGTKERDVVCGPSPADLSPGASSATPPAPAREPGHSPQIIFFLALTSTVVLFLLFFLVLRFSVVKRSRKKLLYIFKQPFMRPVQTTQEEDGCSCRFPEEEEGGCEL
T2 sequence (P51654 25-554 limits assumed): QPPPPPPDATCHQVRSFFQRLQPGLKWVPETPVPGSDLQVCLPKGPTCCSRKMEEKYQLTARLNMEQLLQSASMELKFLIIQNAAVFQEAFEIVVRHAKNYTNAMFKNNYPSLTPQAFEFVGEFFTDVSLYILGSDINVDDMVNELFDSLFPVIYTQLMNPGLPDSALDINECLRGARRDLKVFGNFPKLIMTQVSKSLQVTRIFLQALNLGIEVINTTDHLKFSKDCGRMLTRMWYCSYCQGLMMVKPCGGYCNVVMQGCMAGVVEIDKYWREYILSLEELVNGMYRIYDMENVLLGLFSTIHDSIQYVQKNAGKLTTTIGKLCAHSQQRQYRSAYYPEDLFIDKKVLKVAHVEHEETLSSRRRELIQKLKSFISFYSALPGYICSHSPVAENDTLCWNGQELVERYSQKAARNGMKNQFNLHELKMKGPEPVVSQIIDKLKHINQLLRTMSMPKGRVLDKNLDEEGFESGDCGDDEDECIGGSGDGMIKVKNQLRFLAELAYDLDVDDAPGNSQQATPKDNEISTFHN
T4 sequence (P51654 25-559 limits assumed): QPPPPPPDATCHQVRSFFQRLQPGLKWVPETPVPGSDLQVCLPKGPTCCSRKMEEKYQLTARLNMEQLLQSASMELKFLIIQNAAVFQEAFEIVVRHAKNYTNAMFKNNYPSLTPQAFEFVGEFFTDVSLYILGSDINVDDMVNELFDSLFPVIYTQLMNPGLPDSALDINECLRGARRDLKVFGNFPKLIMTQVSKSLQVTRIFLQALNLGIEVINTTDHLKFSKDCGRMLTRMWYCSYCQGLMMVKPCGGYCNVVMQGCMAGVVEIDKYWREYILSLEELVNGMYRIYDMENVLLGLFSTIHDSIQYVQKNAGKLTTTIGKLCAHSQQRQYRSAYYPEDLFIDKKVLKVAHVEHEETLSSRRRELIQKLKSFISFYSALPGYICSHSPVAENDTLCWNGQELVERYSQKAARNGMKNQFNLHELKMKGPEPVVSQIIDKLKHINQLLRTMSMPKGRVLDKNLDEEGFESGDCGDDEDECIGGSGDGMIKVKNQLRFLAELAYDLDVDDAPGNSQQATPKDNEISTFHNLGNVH

| Binder | EC50 [1] [nM] | EC50 [nM], 4-1BB bioassay (NFκB-luc2/4-1BB Jurkat luminescence), with HepG2 cells (human 4-1BB on cells [2]) [nM] | EC50 [3] [nM] | EC50 [4] [nM] | Kd (hu4-1BB-Fc (R&D Systems)) [nM] | koff (hu4-1BB-Fc (R&D Systems)) [s⁻¹] | kon (hu4-1BB-Fc (R&D Systems)) [M⁻¹ s⁻¹] | EC50 (human 4-1BB on cells [5]) [nM] | EC50 [6] [nM] | EC50 (read off the curve) [7] [nM] | EC50 [8] [nM] | EC50 (read off the curve) (human 4-1BB on cells [9]) [nM] | binding result [10] | binding result [6] | EC50 (human OX40 on cells) [nM] | EC50 (human 4-1BB on cells [11]) [nM] |
| --- | --- | --- | --- | --- | --- | --- | --- | --- | --- | --- | --- | --- | --- | --- | --- | --- |
| B1 | 3.07 | 0.38 | 0.15 | 0.63 | 0.26 | 1.99e-05 | 77900 | 5.49 | 5.99 |  |  |  |  |  |  |  |
| B2 |  |  |  |  | 1.18 | 9.75e-05 | 82300 |  |  | ~1 | 0.18 | ~2 |  |  |  |  |
| B3 |  |  |  |  | 0.76 | 7.08e-05 | 92700 | 3.99 |  |  | 0.41 |  | no binding (tested: about 200 nM) | no binding |  |  |
| B4 |  |  |  |  |  |  |  |  |  |  |  |  |  |  | 0.71 | 3.03 |

Source: patent US20230227568A1 (Pieris, published 2023)
